The results in this text go back to patent US20240050600A1, “Radiopharmaceuticals, uses thereof, and methods for the production thereof” (priority 2020, published 2024).

The term tissue uptake denotes the percentage of the injected dose found per gram of tissue.

The series in a line: in vivo. Details: species or system Balb/c nude mice. Particulars: male, Balb/c nude, mouse, iv, total radioactivity. The text has this:
Healthy male Balb/c nude mice (˜18 g) from 8 weeks old were obtained from the ARC and used for this study. Mice were imported into the CAI animal holding facility and monitored for 1 week prior to the study in order to acclimatise to the environment prior to injection of cells. All animals were provided with free access to food and water before and during the imaging experiments which were approved by the University of Queensland Animal Ethics Committee (Approval #AIBN/CAI/105/19/ARC/NHMRC).
8-week-old male Balb/c nude mice were injected (27 G needle) subcutaneously with PC3 ([…]) cells in 50 μL of 50:50 matrigel and cells in phosphate buffered saline into the right flank of each mouse. There was no evidence of ulceration at the time of dosing; the animals were closely monitored and remained in good condition apart from the growth of tumours. […] Labelled peptides were injected via the tail vein (29 G needle; ˜2-3 MBq) and then mice were imaged using the Siemens Inveon PET-CT instrument at the various timepoints.
The injection syringe was filled with the radioisotope solution (approximately 150 μL) and the activity in the syringe was measured using a dose calibrator (Capintec CRC-25) with a calibration factor of 35. The activity left in the syringe after the tail vein injection was measured using the same dose calibrator and the total volume injected in each mouse was calculated.
Organs were excised at 24 hours, with the percentage of injected dose of the administered compound determined by ex vivo gamma counting (Table 2). Values are averages across 4 mice.

The mark [1] stands for this setting: Percentage of injected dose in Blood.
Where [2] appears, read: Percentage of injected dose in GI Tract.
Setting [3] is: Percentage of injected dose in Heart.
Where [4] appears, read: Percentage of injected dose in Kidneys.
Setting [5] is: Percentage of injected dose in Liver.
[6] abbreviates: Percentage of injected dose in Lungs.
Setting [7] is: Percentage of injected dose in Pancreas.
The mark [8] stands for this setting: Percentage of injected dose in Spleen.
Setting [9] is: Percentage of injected dose in Tail.
Where [10] appears, read: Percentage of injected dose in Tumour.

Turning to `CC(C)C[C@H](NC(=O)C[C@H](O)[C@H](CC(C)C)NC(=O)[C@H](Cc1c[nH]cn1)NC(=O)CNC(=O)[C@@H](NC(=O)[C@H](C)NC(=O)[C@H](Cc1c[nH]c2ccccc12)NC(=O)[C@H](CCC(N)=O)NC(=O)[C@@H](Cc1ccccc1)NC(=O)CCOCCOCCOCCOCCNC(=O)CCCC(=O)NC12CNCCNCC(NC(=O)CCCC(=O)NC(CCCCNC(=O)CCCc3ccc(I)cc3)C(=O)O)(CNCCNC1)CNCCNC2)C(C)C)C(N)=O` (stereo partly drawn) [Sar(ABG)(BBN)], the tissue uptake at 24 h was found to be 7.22 ± 0.79 %ID/g under setting [1]; 1.93 ± 0.46 %ID/g under setting [2]; 3.1 ± 0.53 %ID/g under setting [3]; 4.29 ± 0.54 %ID/g under setting [4]; 2.96 ± 0.3 %ID/g under setting [5]; 4.85 ± 0.93 %ID/g under setting [6]. Further, the tissue uptake at 24 h runs as follows: under setting [7], 6 ± 1.17 %ID/g; under setting [8], 2.68 ± 0.33 %ID/g; under setting [9], 2.06 ± 0.3 %ID/g; under setting [10], 22.3 ± 11 %ID/g.
For the compound `CC(C)CC(NC(=O)CC(O)C(CC(C)C)NC(=O)C(Cc1c[nH]cn1)NC(=O)CNC(=O)C(NC(=O)C(C)NC(=O)C(Cc1c[nH]c2ccccc12)NC(=O)C(CCC(N)=O)NC(=O)C(Cc1ccccc1)NC(=O)CCOCCOCCOCCOCCNC(=O)CCCC(=O)NC12CNCCNCC(NC(=O)CCCC(=O)NCCOCCOCCOCCOCCC(=O)NC(Cc3ccccc3)C(=O)NC(CCC(N)=O)C(=O)NC(Cc3c[nH]c4ccccc34)C(=O)NC(C)C(=O)NC(C(=O)NCC(=O)NC(Cc3c[nH]cn3)C(=O)NC(CC(C)C)C(O)CC(=O)NC(CC(C)C)C(N)=O)C(C)C)(CNCCNC1)CNCCNC2)C(C)C)C(N)=O` (stereo not drawn) [Sar(BBN)2], the tissue uptake at 24 h is, setting by setting: under setting [1], 0.1 ± 0.05 %ID/g; under setting [2], 0.44 ± 0.04 %ID/g; under setting [3], 0.21 ± 0.03 %ID/g; under setting [4], 6.81 ± 0.67 %ID/g; under setting [5], 16.8 ± 1.55 %ID/g; under setting [6], 0.36 ± 0.12 %ID/g. Also, the tissue uptake at 24 h by setting is: under setting [7], 0.84 ± 0.06 %ID/g; under setting [8], 1.47 ± 0.2 %ID/g; under setting [9], 0.28 ± 0.05 %ID/g; under setting [10], 2.13 ± 0.86 %ID/g.
For `CC(C)C[C@H](NC(=O)C[C@H](O)[C@H](CC(C)C)NC(=O)[C@H](Cc1c[nH]cn1)NC(=O)CNC(=O)[C@@H](NC(=O)[C@H](C)NC(=O)[C@H](Cc1c[nH]c2ccccc12)NC(=O)[C@H](CCC(N)=O)NC(=O)[C@@H](Cc1ccccc1)NC(=O)CCOCCOCCOCCOCCNC(=O)CCCC(=O)NC12CNCCNCC(N)(CNCCNC1)CNCCNC2)C(C)C)C(N)=O` [Sar(BBN)], the tissue uptake at 24 h was determined as 0.13 ± 0.04 %ID/g under setting [1]; 0.3 ± 0.07 %ID/g under setting [2]; 0.24 ± 0.02 %ID/g under setting [3]; 3.55 ± 0.79 %ID/g under setting [4]; 1.52 ± 0.18 %ID/g under setting [5]; 0.31 ± 0.08 %ID/g under setting [6]. Besides, the tissue uptake at 24 h was found to be 0.23 ± 0.02 %ID/g under setting [7], 0.38 ± 0.06 %ID/g under setting [8], 0.56 ± 0.87 %ID/g under setting [9] and 4.09 ± 0.52 %ID/g under setting [10].
